Source: publication PMC5050560

B1: Pr27 (PcdpadR1) (dsDNA)
DNA 1: TAAACCTTGTATTATAGAGTACTATGTATTATTATAGTAAATATAAGTACTATACATTATAGAGTAGTAGGTGAAAAGGCGGTGGTACATAATGCAGTTA
DNA 2: TAACTGCATTATGTACCACCGCCTTTTCACCTACTACTCTATAATGTATAGTACTTATATTTACTATAATAATACATAGTACTCTATAATACAAGGTTTA
B2: Pr111 (dsDNA)
DNA 1: ATATAGGAAATATAGAACAGATTTTCCAAGAAATCTAAATATTCTATGACCACGTGAATTGCTATGCACACATGTTGATAATCCATATTTTAAATCTAAA
DNA 2: TTTAGATTTAAAATATGGATTATCAACATGTGTGCATAGCAATTCACGTGGTCATAGAATATTTAGATTTCTTGGAAAATCTGTTCTATATTTCCTATAT
B3: Pr69 (dsDNA)
DNA 1: ATGCTATAATTTTATCACTATGGTACTATATTACAATAATGCACTTTTTTGTAATATAGTATCTAAAAAGATACTTTAAAATAAATAAAGGAGCTCAAAA
DNA 2: TTTTGAGCTCCTTTATTTATTTTAAAGTATCTTTTTAGATACTATATTACAAAAAAGTGCATTATTGTAATATAGTACCATAGTGATAAAATTATAGCAT
B4: Pr70 (dsDNA)
DNA 1: TTATTTACCCCCTATTGTTTTATTAGGCTAAGTTGATGATTTATTTAACCTATGCTATAATTTTATCACTATGGTACTATATTACAATAATGCACTTTTT
DNA 2: AAAAAGTGCATTATTGTAATATAGTACCATAGTGATAAAATTATAGCATAGGTTAAATAAATCATCAACTTAGCCTAATAAAACAATAGGGGGTAAATAA
B5: Pr34 (dsDNA)
DNA 1: TTTGATGAAAAAAATGTTACAATATTTAATATTGAAAATGGCGATGTTATTAGCATAGAGAATGGAGGAAATTAAATGAAACAAGAATACGGTGCAAGTC
DNA 2: GACTTGCACCGTATTCTTGTTTCATTTAATTTCCTCCATTCTCTATGCTAATAACATCGCCATTTTCAATATTAAATATTGTAACATTTTTTTCATCAAA
B6: Pr35 (dsDNA)
DNA 1: CATTTAAAGAATGGGATATTATGTAATTGTAGATTATGTAGGTTTAAATTATTTATTTTTGTTTTAGCAAATTCTATGAATAGAAGGGGTTTGATTATGG
DNA 2: CCATAATCAAACCCCTTCTATTCATAGAATTTGCTAAAACAAAAATAAATAATTTAAACCTACATAATCTACAATTACATAATATCCCATTCTTTAAATG
B7: Pr120 (dsDNA)
DNA 1: TTTTTATTCCTCCCTTTTTATTTATTAAAATTTATTATATTTTTCTATGATTCACTTAATTAAATTTCTCCATCTACAATTTTTCCATCTACAGATATAG
DNA 2: CTATATCTGTAGATGGAAAAATTGTAGATGGAGAAATTTAATTAAGTGAATCATAGAAAAATATAATAAATTTTAATAAATAAAAAGGGAGGAATAAAAA
B8: Pr121 (dsDNA)
DNA 1: AAGCTACCTTGCATAAATATCTTGGATAGTATATTGATTATATAATCAGTAAATGTTATACTTTTCATGACGATAAAAACATTTTAGTCATAAGGGGGTT
DNA 2: AACCCCCTTATGACTAAAATGTTTTTATCGTCATGAAAAGTATAACATTTACTGATTATATAATCAATATACTATCCAAGATATTTATGCAAGGTAGCTT
B9: Pr29 (dsDNA)
DNA 1: TAAACCTTGTATTATAGAGTACTATGTATTATTATAGTAAATATAAGTACTATACATTATAGAG
DNA 2: CTCTATAATGTATAGTACTTATATTTACTATAATAATACATAGTACTCTATAATACAAGGTTTA
B10: Pr30 (dsDNA)
DNA 1: TATAGTAAATATAAGTACTATACATTATAGAGTAGTAGGTGAAAAGGCGGTGGTACATAATGCAGTTA
DNA 2: TAACTGCATTATGTACCACCGCCTTTTCACCTACTACTCTATAATGTATAGTACTTATATTTACTATA
B11: Pr31 (dsDNA)
DNA 1: AATATAAGTACTATACATTATAGAGTAGTAGGTGAAAAGGCGGTGGTACATAATGCAGTTA
DNA 2: TAACTGCATTATGTACCACCGCCTTTTCACCTACTACTCTATAATGTATAGTACTTATATT
B12: Pr32 (dsDNA)
DNA 1: TGTATTATAGAGTACTATGTATTATTATAGTAAATATAAGTACTATACATTATAGAGTAGTAGG
DNA 2: CCTACTACTCTATAATGTATAGTACTTATATTTACTATAATAATACATAGTACTCTATAATACA
B13: Pr48 (PnorV) (dsDNA)
DNA 1: TTTTAACCCTCCTAAAATTTATCATTATATAAGTAACATACCCAATTTTGAGGTGAATGAAACAAAAGATGTCATGATAAGTCATGTAAAACAATAGTTT
DNA 2: AAACTATTGTTTTACATGACTTATCATGACATCTTTTGTTTCATTCACCTCAAAATTGGGTATGTTACTTATATAATGATAAATTTTAGGAGGGTTAAAA
B14: Pr33 (dsDNA)
DNA 1: GAGTACTATGTATTATTATAGTAAATATAAGTACTATACATTATAGAGTAGTAG
DNA 2: CTACTACTCTATAATGTATAGTACTTATATTTACTATAATAATACATAGTACTC
B15: Pr41 (dsDNA)
DNA 1: TACTATACATTATAGAGTAGTA
DNA 2: TACTACTCTATAATGTATAGTA
B16: Pr42 (dsDNA)
DNA 1: CTATACATTATAG
DNA 2: CTATAATGTATAG
B17: Pr43 (dsDNA)
DNA 1: CTATGTATTATTATAGTAAATATAAGTACTATACATTA
DNA 2: TAATGTATAGTACTTATATTTACTATAATAATACATAG
B18: Pr53 (dsDNA)
DNA 1: AATATAAGTACTATACATTATAGAG
DNA 2: CTCTATAATGTATAGTACTTATATT
B19: Pr54 (dsDNA)
DNA 1: GTAAATATAAGTACTATACATTATAGAGTAG
DNA 2: CTACTCTATAATGTATAGTACTTATATTTAC
B20: Pr67 (dsDNA)
DNA 1: AGTACTATACATTATAGAGTAGT
DNA 2: ACTACTCTATAATGTATAGTACT
B21: Pr68 (dsDNA)
DNA 1: GTACTATACATTATAGAGTAG
DNA 2: CTACTCTATAATGTATAGTAC
B22: Pr88 (dsDNA)
DNA 1: GTACTATGTATTATTATAGTAA
DNA 2: TTACTATAATAATACATAGTAC
B23: Pr122 (dsDNA)
DNA 1: TAGAGTACTATGTATTATTATAGTAAATAT
DNA 2: ATATTTACTATAATAATACATAGTACTCTA
B24: Pr112 (dsDNA)
DNA 1: ATATTTTAGTTATATTTTTGATAGAAAATATTTTATCGTGTATAATACTACTTATAAATAAGAATAAAAATAAAGAGCTTGTTTGGAGGAATTTTAATAA
DNA 2: TTATTAAAATTCCTCCAAACAAGCTCTTTATTTTTATTCTTATTTATAAGTAGTATTATACACGATAAAATATTTTCTATCAAAAATATAACTAAAATAT
B25: Pr94 (dsDNA)
DNA 1: AATGAAACAAAAGATGTCATG
DNA 2: CATGACATCTTTTGTTTCATT
B26: Pr95 (dsDNA)
DNA 1: TAAAATTTATCATTATATAAGTAA
DNA 2: TTACTTATATAATGATAAATTTTA
B27: Pr96 (dsDNA)
DNA 1: AAGTAACATACCCAATTTTGAGGT
DNA 2: ACCTCAAAATTGGGTATGTTACTT
B28: Pr97 (dsDNA)
DNA 1: TTACTTATATAATGATAAATTTTAGGAG
DNA 2: CTCCTAAAATTTATCATTATATAAGTAA
B29: Pr102 (dsDNA)
DNA 1: TTTTAACCCTCCTAAAATTTATCATTATATAAGTAACATACCCAATTTTG
DNA 2: CAAAATTGGGTATGTTACTTATATAATGATAAATTTTAGGAGGGTTAAAA
B30: Pr103 (dsDNA)
DNA 1: TATATAAGTAACATACCCAATTTTGAGGTGAATGAAACAAAAGATGTCAT
DNA 2: ATGACATCTTTTGTTTCATTCACCTCAAAATTGGGTATGTTACTTATATA
B31: Pr104 (dsDNA)
DNA 1: AGGTGAATGAAACAAAAGATGTCATGATAAGTCATGTAAAACAATAGTTT
DNA 2: AAACTATTGTTTTACATGACTTATCATGACATCTTTTGTTTCATTCACCT
B32: Pr105 (dsDNA)
DNA 1: AAAAGATGTCATGATAAGTCATGTAA
DNA 2: TTACATGACTTATCATGACATCTTTT
B33: Pr106 (dsDNA)
DNA 1: AAAATTTATCATTATATAAGTAACATAC
DNA 2: GTATGTTACTTATATAATGATAAATTTT
B34: Pr114 (dsDNA)
DNA 1: ATATTTTATAATTAATAATTGTAATGCCGCACAGTAAAGGTTTAAATCTTCAAATGAAGTACCTTGTACTGGCGAGTTTGAGGCCGAGGAGGTGTATTTA
DNA 2: TAAATACACCTCCTCGGCCTCAAACTCGCCAGTACAAGGTACTTCATTTGAAGATTTAAACCTTTACTGTGCGGCATTACAATTATTAATTATAAAATAT

The binders below were run against cdPadR1 (Clostridium difficile R20291, UniProt A0A9R0CDW8 1-109) (assay: EMSA; 20 mM Tris pH 8.0, 120 mM KCl, 10 mM MgCl2, 5 mM DTT, 12.5% glycerol, 125 ug/mL heparin, room temperature). Conditions: protein: recombinant; tags: N-terminal Strep II; chain copies: 2.

| Binder | binding result |
| --- | --- |
| B1 | binds |
| B2 | binds |
| B3 | binds |
| B4 | binds |
| B5 | binds |
| B6 | binds |
| B7 | binds |
| B8 | binds |
| B9 | binds |
| B10 | binds |
| B11 | binds |
| B12 | binds |
| B13 | binds |
| B14 | binds |
| B15 | binds |
| B16 | no binding |
| B17 | no binding |

| Binder | binding result |
| --- | --- |
| B18 | no binding |
| B19 | binds |
| B20 | binds |
| B21 | binds |
| B22 | no binding |
| B23 | binds |
| B24 | binds |
| B25 | no binding |
| B26 | no binding |
| B27 | no binding |
| B28 | no binding |
| B29 | binds |
| B30 | no binding |
| B31 | binds |
| B32 | no binding |
| B33 | no binding |
| B34 | no binding |
